Experimental data as given in patent publication US20230416363A1.

Molecular target: mouse PD-1 expressed on cells (mouse) (UniProt Q02242)
Assay: cell-based or functional assay

Chain of mouse PD-1 expressed on cells (mouse) (Q02242 25-288): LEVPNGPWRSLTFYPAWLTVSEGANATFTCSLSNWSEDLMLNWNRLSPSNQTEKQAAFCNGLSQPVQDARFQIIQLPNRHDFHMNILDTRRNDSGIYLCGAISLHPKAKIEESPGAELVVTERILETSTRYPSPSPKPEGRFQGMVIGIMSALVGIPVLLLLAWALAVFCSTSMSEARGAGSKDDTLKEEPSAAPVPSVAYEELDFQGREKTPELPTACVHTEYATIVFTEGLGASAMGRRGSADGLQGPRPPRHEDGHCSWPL

- IC 50, Promega assay: 5.59 mg/L
B1: RMP1-14 (antibody, from another filing, V domains shown)
VH: EVQLQESGPGLVKPSQSLSLTCSVTGYSITSSYRWNWIRKFPGNRLEWMGYINSAGISNYNPSLKRRISITRDTSKNQFFLQVNSVTTEDAATYYCARSDNMGTTPFTYWGQGTLVTVSS
VL: DIVMTQGTLPNPVPSGESVSITCRSSKSLLYSDGKTYLNWYLQRPGQSPQLLIYWMSTRASGVSDRFSGSGSGTDFTLKISGVEAEDVGIYYCQQGLEFPTFGGGTKLELK
